Laboratory results reported in patent publication US20260116991A1 (HAINAN SIMCERE ZAIMING PHARMACEUTICAL, published 2026).
Where a chain is given by its changes, count along the chain named.

B1: hAb001H1L1 (antibody, human IgG1, V domains shown)
VH: EVQLVESGGGLVQPGGSLRLSCAASGFSFNTNAMNWVRQAPGKGLEWVGRIRSKSNNYATYYADSVKDRFTISRDDSKNSLYLQMNSLKTEDTAVYYCVRDGYYVLFAYWGQGTLVTVSS
VL: DIVMTQTPLSLPVTPGEPASISCRFSQSIVNSNGNTYLEWFLQKPGQSPQLLIYKVSNRFSGVPDRFSGSGSGTDFTLKISRVEAEDVGVYYCFQGSHVPFTFGQGTKLEIK
notes: Humanized F2.169.2, H1+L1
B2: hAb001H1aL1 (antibody, human IgG1, V domains shown)
VH: B1 VH with D68G
VL: B1 VL
notes: Humanized F2.169.2, H1a+L1
B3: hAb001H1aL1a (antibody, human IgG1, V domains shown)
VH: B1 VH with D68G
VL: B1 VL with N33D
notes: Humanized F2.169.2, H1a+L1a
B4: hAb001H1L1a (antibody, human IgG1, V domains shown)
VH: B1 VH
VL: B1 VL with N33D
notes: Humanized F2.169.2, H1+L1a
B5: hAb006LH3L1b (antibody, human IgG1, V domains shown)
VH: EVQLVQSGAEVKKPGSSVKVSCKASGYTFTDYEIHWVRQAPGQGLEWMGAIDPKTGNTAYNQKFMGRVTLTADKSTSTAYMELSSLRSEDTAVYYCTRYFSFAYWGQGTLVTVSS
VL: B1 VL with F25S, S28T, I29F, N31H, G34A, E39Q, F41Y, F101Y
notes: Humanized F3.38.7, H3+L1b
B6: hAb005LH1L1b (antibody, human IgG1, V domains shown)
VH: EVQLVQSGAEVKKPGASVKVSCKASGYTFTDYEMHWVRQAPGQGLEWMGAIDPETGNTAYIQKFKGRVTMTTDKSTSTAYMELRSLRSDDTAVYYCTRFYSYSHWGQGTTVTVSS
VL: DIVMTQTPLSLPVTPGEPASISCRSSQSLVHSNRNTYLHWYLQKPGQSPQLLIYKVSNRFSGVPDRFSGSGSGTDFTLKISRVEAEDVGVYYCSQNTHVPPTFGGGTKVEIK
notes: Humanized F3.54.12, H1+L1b

target: T1, murine GPC3-his protein (murine, UniProt Q8CFZ4 25-558, limits assumed); experiment: ELISA, murine GPC3-his coated; antibody 13.33 nM
T1 construct: Bought protein; also called mouse GPC3 protein; murine GPC3 protein; not shown: His tag
T1 sequence (Q8CFZ4 25-558 limits assumed): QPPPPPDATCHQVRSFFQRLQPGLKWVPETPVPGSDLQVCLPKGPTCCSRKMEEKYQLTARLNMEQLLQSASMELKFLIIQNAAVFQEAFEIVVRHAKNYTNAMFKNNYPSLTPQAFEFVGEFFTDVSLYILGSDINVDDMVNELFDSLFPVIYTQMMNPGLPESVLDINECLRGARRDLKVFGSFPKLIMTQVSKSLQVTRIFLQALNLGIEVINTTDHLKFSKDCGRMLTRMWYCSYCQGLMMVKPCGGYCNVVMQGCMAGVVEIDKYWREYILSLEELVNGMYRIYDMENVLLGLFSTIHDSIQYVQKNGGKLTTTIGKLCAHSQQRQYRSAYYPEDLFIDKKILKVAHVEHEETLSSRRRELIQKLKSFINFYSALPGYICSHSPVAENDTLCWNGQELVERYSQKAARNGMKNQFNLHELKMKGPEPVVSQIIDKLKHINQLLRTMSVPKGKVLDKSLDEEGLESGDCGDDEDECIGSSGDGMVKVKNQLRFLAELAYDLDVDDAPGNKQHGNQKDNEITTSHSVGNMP

Binder	OD450 nm
B1	2.82
B2	2.63
B3	2.44
B4	2.57

target: T1, murine GPC3-his protein; experiment: ELISA, murine GPC3-his coated; antibody 0.53 nM
Protocol: (§1) The specific method is described as follows: The antigen protein was diluted with PBS to a final concentration of 1 μg/mL, and the diluent was added to a 96-well ELISA plate at 50 μL/well. The plate was sealed with a plastic film and incubated at 4° C. overnight, washed twice with PBS the next day, and a blocking solution [PBS+2% (w/w) BSA] was added for blocking at room temperature for 2 h. […] After incubation at 37° C. for 2 h, the plate was washed 3 times with PBS. A horseradish peroxidase (HRP)-labeled secondary antibody (purchased from Merck, Cat. No. AP113P) was added for incubation at 37° C. for 1 h, and the plate was washed 5 times with PBS. A TMB substrate was added at 50 μL/well for incubation at room temperature for 10 min, then a stop solution (1.0M HCl) was added at 50 μL/well.

Binder	OD450 nm
B1	2.8
B2	2.45
B3	2.29
B4	2.37

target: T2, monkey GPC3-His protein (monkey); experiment: ELISA, monkey GPC3-His coated; antibody 13.33 nM
T2 construct: Bought protein; also called monkey GPC3 protein
Protocol: as §1

Binder	OD450 nm
B5	2.38
B1	2.55
B6	1.16
B2	2.52
B3	2.42
B4	2.37

target: T2, monkey GPC3-His protein; experiment: ELISA, monkey GPC3-His coated; antibody 2.67 nM
Protocol: as §1

Binder	OD450 nm
B5	2.55
B1	2.54
B6	1.11
B2	2.57
B3	2.44
B4	2.27

target: T2, monkey GPC3-His protein; experiment: ELISA, monkey GPC3-His coated; antibody 0.0008 nM
Protocol: as §1

Binder	OD450 nm
B5	0.125
B1	0.198
B6	0.107
B2	0.201
B3	0.073
B4	0.068

target: T1, murine GPC3-his protein; experiment: ELISA, murine GPC3-his coated; antibody 66.66 nM
Protocol: as §1

Binder	OD450 nm
B1	2.64
B2	2.68
B3	2.45
B4	2.58

target: T1, murine GPC3-his protein; experiment: ELISA, murine GPC3-his coated; antibody 0.02 nM
Protocol: as §1

Binder	OD450 nm
B1	1.32
B2	1.15
B3	0.67
B4	0.657

target: T1, murine GPC3-his protein; experiment: ELISA, murine GPC3-his coated; antibody 0.004 nM
Protocol: as §1

Binder	OD450 nm
B1	0.48
B2	0.44
B3	0.206
B4	0.356

target: T2, monkey GPC3-His protein; experiment: ELISA, monkey GPC3-His coated; antibody 0.02 nM
Protocol: as §1

Binder	OD450 nm
B5	1.01
B1	1.08
B6	0.664
B2	1.03
B3	0.437
B4	0.39

target: T1, murine GPC3-his protein; experiment: ELISA, murine GPC3-his coated; antibody 0.11 nM
Protocol: as §1

Binder	OD450 nm
B1	2.31
B2	1.95
B3	1.49
B4	1.66

target: T2, monkey GPC3-His protein; experiment: ELISA, monkey GPC3-His coated; antibody 0.53 nM
Protocol: as §1

Binder	OD450 nm
B5	2.56
B1	2.46
B6	1.09
B2	2.36
B3	2.19
B4	2.08

target: T2, monkey GPC3-His protein; experiment: ELISA, monkey GPC3-His coated; antibody 66.66 nM
Protocol: as §1

Binder	OD450 nm
B5	2.67
B1	2.55
B6	1.16
B2	2.52
B3	2.34
B4	2.16

target: T2, monkey GPC3-His protein; experiment: ELISA, monkey GPC3-His coated; antibody 0.004 nM
Protocol: as §1

Binder	OD450 nm
B5	0.306
B1	0.373
B6	0.215
B2	0.379
B3	0.132
B4	0.211

target: T3, GPC3 on HepG2 cells (human, UniProt P51654 25-554); experiment: FACS on HepG2 cells
T3 construct: whole, on cells; also called glypican-3

Binder	EC50	Max MFI
B5	1.49 nM	4610
B6	1.01 nM	4800

target: T2, monkey GPC3-His protein; experiment: ELISA, monkey GPC3-His coated; antibody 0.11 nM
Protocol: as §1

Binder	OD450 nm
B5	1.99
B1	1.96
B6	0.949
B2	2
B3	1.44
B4	1.23

target: T1, murine GPC3-his protein; experiment: ELISA, murine GPC3-his coated; antibody 2.67 nM
Protocol: as §1

Binder	OD450 nm
B1	2.69
B2	2.52
B3	2.49
B4	2.49

target: T1, murine GPC3-his protein; experiment: ELISA, murine GPC3-his coated; antibody 0.0008 nM
Protocol: as §1

Binder	OD450 nm
B1	0.239
B2	0.255
B3	0.092
B4	0.117
